Experimental data from article PMC6195595.

Columns and labels:
[1] = molecular target: Kj12C-^NDD (N-terminal docking domain of Kj12C) (Xenorhabdus stockiae KJ12.1); experiment: ITC; 50 µM ^NDD protein in the cell titrated with 1 mM ^CDD peptide or variant, 20 °C, 50 mM sodium phosphate pH 6.5, 100 mM NaCl, one site binding model, three independent titrations
[2] = molecular target: Kj12B-^NDD (N-terminal docking domain of Kj12B) (Xenorhabdus stockiae KJ12.1); experiment: as above
[3] = molecular target: Kj12C N-terminal docking domain (Xenorhabdus stockiae KJ12.1); experiment: ITC; 50 µM NDD (or Kj12C construct) in the cell titrated with 1 mM CDD peptide; 20 °C; 50 mM sodium phosphate pH 6.5, 100 mM NaCl; one site binding model; three independent titrations
[4] = molecular target: Kj12A-^NDD (N-terminal docking domain of Kj12A) (Xenorhabdus stockiae KJ12.1); experiment: ITC; 50 µM ^NDD protein in the cell titrated with 1 mM ^CDD peptide or variant, 20 °C, 50 mM sodium phosphate pH 6.5, 100 mM NaCl, one site binding model, three independent titrations
[5] = molecular target: Kj12B N-terminal docking domain (Xenorhabdus stockiae KJ12.1); experiment: ITC; 50 µM NDD (or Kj12C construct) in the cell titrated with 1 mM CDD peptide; 20 °C; 50 mM sodium phosphate pH 6.5, 100 mM NaCl; one site binding model; three independent titrations
[6] = molecular target: Kj12B thiolation domain with CDD (Xenorhabdus stockiae KJ12.1); experiment: ITC; Kj12B T-domain-CDD in the cell (given as 50 mM) titrated with 1 mM Kj12C-NDD in the syringe; 20 °C; 50 mM sodium phosphate pH 6.5, 100 mM NaCl; one site binding model
[7] = molecular target: Kj12B-NDD K24R, K26Q, K28E (Xenorhabdus stockiae KJ12.1); experiment: ITC; 50 µM NDD (or Kj12C construct) in the cell titrated with 1 mM CDD peptide; 20 °C; 50 mM sodium phosphate pH 6.5, 100 mM NaCl; one site binding model; three independent titrations
[8] = molecular target: Kj12B-NDD K26Q, K28E (Xenorhabdus stockiae KJ12.1); experiment: as above
[9] = molecular target: Kj12B-NDD K28E (Xenorhabdus stockiae KJ12.1); experiment: as above
[10] = molecular target: Kj12C-NDD Q26K, E28A (Xenorhabdus stockiae KJ12.1); experiment: as above
[11] = molecular target: Kj12C-NDD-Cterm (full-length Kj12C module) (Xenorhabdus stockiae KJ12.1); experiment: as above

“Kj12A-^CDD peptide (C-terminal docking domain of Kj12A)” gave a Kd [1] of 100 µM.
With Kj12B-^CDD peptide R1565E the Kd [2] was 13 µM.
In the case of Kj12A-CDDshort E1169R, H1171E peptide, the stoichiometry N [3] is reported as 1.3 sites.
“Kj12B-^CDD peptide (C-terminal docking domain of Kj12B)” showed a Kd [4] of 8 µM, a Kd [2] of 62 µM and a Kd [1] of 8 µM.
For Kj12B-CDDshort R1565E peptide, the stoichiometry N [5] was 1.15 sites.
“Kj12A-^CDD peptide with E1169R and H1171E (double mutant)” gave a Kd [1] of 3.5 µM.
Substance “Kj12C N-terminal docking domain (domain or fragment)” has a Kd [6] of 19 µM and a stoichiometry N [6] of 1.2 sites.
Substance Kj12B-CDDshort peptide has a stoichiometry N [7] of 0.97 sites, a Kd [8] of 20.4 µM and a stoichiometry N [8] of 1 sites. The Kd [9] was 33 µM, the stoichiometry N [9] was 1 sites and the Kd [10] was 80 µM. It also gave a stoichiometry N [10] of 1 sites, a Kd [11] of 8 µM and a stoichiometry N [11] of 1 sites.
For Kj12B-^CDD_(short) peptide, the Kd [1] was 15 µM.
